Data: article PMC5623700
Read-outs that look alike come from different tables or passages of the source. Values belong to the substance of their own block, whether it stands above or below them.

Legend:
[1] = target: human FcRn (human FCGRT & B2M heterodimer) (human) (UniProt P55899); test: BLI; Octet Red384; FcRn amine-coupled to AR2G tips; 320 nM IgG1 associated at pH 6 and dissociated at pH 7.2; fraction bound 5 s after the start of dissociation (response at 0 s = 100%)
[2] = target: human FcRn (human FCGRT & B2M heterodimer) (human) (UniProt P55899); test: BLI; Octet Red384, multicycle kinetics; FcRn amine-coupled to AR2G tips, IgG1 2.5-80 nM; association and dissociation at pH 6 (50 mM phosphate, 150 mM NaCl, 0.1% Tween 20); heterogeneous ligand model; KD observed
[3] = target: recombinant human FcγRIIIb (human) (UniProt O75015); test: SPR; SPR imaging (IBIS MX96); biotinylated Fcγ receptors on a streptavidin G-Strep SensEye sensor, IgG injected; HBS pH 7.2/0.05% Tween-80; binding level at equilibrium (2 min) relative to a reference sample set to 100%; 50 and 250 μg/mL IgG1 (FcγRIIa, FcγRIIIa) or 250 and 1000 μg/mL (FcγRIIb, FcγRIIIb); corrected for decay of the surface
Chain of UniProt O75015 (O75015 17-200): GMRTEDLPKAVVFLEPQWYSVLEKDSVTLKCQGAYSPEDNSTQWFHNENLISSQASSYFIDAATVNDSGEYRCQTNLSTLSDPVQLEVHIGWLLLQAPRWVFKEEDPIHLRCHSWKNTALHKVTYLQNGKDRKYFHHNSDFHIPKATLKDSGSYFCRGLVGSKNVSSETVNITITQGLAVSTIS

[4] = target: recombinant human FcγRIIIa (human) (UniProt P08637); test: as above
Chain of UniProt P08637 (P08637 17-254): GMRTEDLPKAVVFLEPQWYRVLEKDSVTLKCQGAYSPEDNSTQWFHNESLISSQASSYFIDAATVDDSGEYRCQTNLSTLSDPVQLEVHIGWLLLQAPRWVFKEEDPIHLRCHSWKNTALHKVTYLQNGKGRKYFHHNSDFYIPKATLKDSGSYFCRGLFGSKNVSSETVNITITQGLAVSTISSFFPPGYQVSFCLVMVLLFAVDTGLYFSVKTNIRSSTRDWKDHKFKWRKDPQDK

[5] = target: recombinant human FcγRIIa (human) (UniProt P12318); test: as above
Chain of UniProt P12318 (P12318 34-317): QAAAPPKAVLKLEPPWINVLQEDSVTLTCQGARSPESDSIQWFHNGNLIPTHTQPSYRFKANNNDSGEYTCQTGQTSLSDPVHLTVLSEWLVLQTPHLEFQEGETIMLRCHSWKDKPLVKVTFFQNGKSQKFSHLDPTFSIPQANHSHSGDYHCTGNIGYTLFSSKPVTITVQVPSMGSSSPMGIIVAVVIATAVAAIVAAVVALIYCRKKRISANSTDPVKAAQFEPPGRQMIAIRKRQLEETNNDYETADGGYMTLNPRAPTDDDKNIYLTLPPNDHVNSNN

[6] = target: recombinant human FcγRIIb (human) (UniProt P31994); test: as above
Chain of UniProt P31994 (P31994 43-310): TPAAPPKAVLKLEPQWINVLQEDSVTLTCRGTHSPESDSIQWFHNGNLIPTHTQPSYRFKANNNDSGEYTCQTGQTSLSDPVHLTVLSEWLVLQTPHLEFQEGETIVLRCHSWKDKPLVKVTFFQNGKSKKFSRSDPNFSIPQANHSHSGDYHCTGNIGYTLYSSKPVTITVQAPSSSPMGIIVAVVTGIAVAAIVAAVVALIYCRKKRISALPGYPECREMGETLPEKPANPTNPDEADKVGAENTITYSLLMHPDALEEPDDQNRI

[7] = target: human FcγRI with a C-terminal AVI-tag and C-terminal His-tag (Sino Biological) (human) (UniProt P12314); test: SPR; Biacore T200, single-cycle kinetics; biotinylated FcγRI captured on a CAPchip, IgG1 injected at 0.06-5 nM; HBS-EP+; 37 °C; 1:1 kinetic model; KD observed
Chain of UniProt P12314 (P12314 16-292): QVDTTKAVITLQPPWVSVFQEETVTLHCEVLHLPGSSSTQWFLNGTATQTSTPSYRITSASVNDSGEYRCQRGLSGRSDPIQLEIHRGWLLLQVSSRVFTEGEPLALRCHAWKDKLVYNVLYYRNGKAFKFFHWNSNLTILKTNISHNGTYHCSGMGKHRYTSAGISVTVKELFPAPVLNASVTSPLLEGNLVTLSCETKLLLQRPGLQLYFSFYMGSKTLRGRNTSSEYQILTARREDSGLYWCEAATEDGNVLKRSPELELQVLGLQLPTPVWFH

[8] = target: human FcRn (human FCGRT & B2M heterodimer) (human) (UniProt P55899); test: BLI; Octet Red384, multicycle kinetics; FcRn amine-coupled to AR2G tips, IgG1 2.5-80 nM; association and dissociation at pH 6 (50 mM phosphate, 150 mM NaCl, 0.1% Tween 20); heterogeneous ligand model; KD observed; remark: listed apart in the source
[9] = target: human FcγRI with a C-terminal AVI-tag and C-terminal His-tag (Sino Biological) (human) (UniProt P12314); test: SPR; Biacore T200, single-cycle kinetics; biotinylated FcγRI captured on a CAPchip, IgG1 injected at 0.06-5 nM; HBS-EP+; 37 °C; 1:1 kinetic model; KD observed; remark: listed apart in the source
[10] = target: T1, neonatal Fc receptor (FcRn), FCGRT + beta2-microglobulin heterodimer (UniProt P55899+P61769); test: biolayer interferometry (Octet Red384), dissociation after a pH switch; settings: pH 7.2; 150 mM NaCl; association in 50 mM phosphate pH 6; dissociation in 50 mM phosphate pH 7.2 (Methods; Results and Discussion say pH 7.4)
[11] = target: T1, neonatal Fc receptor (FcRn), FCGRT + beta2-microglobulin heterodimer; test: as above; settings: pH 7.2; 150 mM NaCl; association in 50 mM phosphate pH 6; dissociation in 50 mM phosphate pH 7.2 (Methods; Results and Discussion say pH 7.4); remark: listed apart in the source
[12] = target: human FcRn (human FCGRT & B2M heterodimer) (human) (UniProt P55899); test: BLI; as a4 (FcRn on AR2G tips, pH 6), but fitted with a 1:1 binding model; not corrected for the molecular weight of the aggregates; apparent
[13] = stress condition 40 °C‐1000 r.p.m._24 h
[14] = stress condition 40 °C‐1000 r.p.m._48 h

Substance: human IgG1 after repeated freeze/thaw cycles (antibody)
fraction bound at neutral pH ([1]; stress condition F‐T 1): 8.4%
fraction bound at neutral pH ([1]; stress condition F‐T 5): 8.1%
fraction bound at neutral pH ([1]; stress condition F‐T 10): 7.4%
Kd ([2]; stress condition F‐T 1): 5.7 nM
Kd ([2]; stress condition F‐T 10): 5.2 nM
relative binding (% of reference) ([3]; stress condition F‐T 1): 106%
relative binding (% of reference) ([3]; stress condition F‐T 5): 105%
relative binding (% of reference) ([3]; stress condition F‐T 10): 102%
relative binding (% of reference) ([4]; stress condition F‐T 1): 80.1%
relative binding (% of reference) ([4]; stress condition F‐T 5): 103%
relative binding (% of reference) ([4]; stress condition F‐T 10): 98.7%
relative binding (% of reference) ([5]; stress condition F‐T 1): 102%
relative binding (% of reference) ([5]; stress condition F‐T 5): 92.3%
relative binding (% of reference) ([5]; stress condition F‐T 10): 85.9%
relative binding (% of reference) ([6]; stress condition F‐T 1): 102%
relative binding (% of reference) ([6]; stress condition F‐T 5): 97.2%
relative binding (% of reference) ([6]; stress condition F‐T 10): 95.9%

Substance: human IgG1 monoclonal antibody, reference sample
Kd [7]: 0.56 nM
maximum response [7]: 80 RU
Kd [8]: 6.3 nM
fraction bound at neutral pH [1]: 7.5%
Kd [2]: 5.7 nM
Kd [9]: 0.66 nM

Substance: human IgG1, 10 freeze/thaw cycles
Fraction bound (5 s after start of dissociation at neutral pH) [10]: 7.4%

Substance: monomer fraction of the DSS-treated IgG1 sample (preparative SEC) (antibody)
Kd [8]: 7 nM
fraction bound at neutral pH [1]: 8.9%
Kd [9]: 0.52 nM

Substance: human IgG1, 40 °C-1000 r.p.m._24 h
Fraction bound (5 s after start of dissociation at neutral pH) [10]: 7.9%

Substance: human IgG1 monoclonal antibody, reference (unstressed)
Fraction bound (5 s after start of dissociation at neutral pH) [10]: 8.3%
Fraction bound (5 s after start of dissociation at neutral pH) [11]: 7.5%

Substance: human IgG1 with 70% afucosylation (antibody)
Kd [7]: 0.33 nM
fraction bound at neutral pH [1]: 15.7%
Kd [2]: 3.8 nM
relative binding (% of reference) [3]: 186%
relative binding (% of reference) [4]: 159%
relative binding (% of reference) [5]: 104%
relative binding (% of reference) [6]: 110%

Substance: human IgG1, DG 0 (glycosylated control of the deglycosylation experiment)
Fraction bound (5 s after start of dissociation at neutral pH) [10]: 8.5%

Substance: human IgG1 after accelerated methionine oxidation with H2O2 (antibody)
Kd ([7]; stress condition H2O2_0.1%): 0.93 nM
Kd ([7]; stress condition H2O2_0.25%): 0.53 nM
Kd ([7]; stress condition H2O2_0.5%): 0.42 nM
fraction bound at neutral pH [1]: 6.4%
Kd [2]: 6.2 nM

Substance: covalent dimer fraction of IgG1 (DSS cross-linked, preparative SEC) (antibody)
fraction bound at neutral pH [1]: 17.3%
Kd [9]: 0.08 nM

Substance: human IgG1 after thermal/shake stress at 40 °C and 1000 r.p.m. (antibody)
Kd [7, 13]: 0.53 nM
Kd [7, 14]: 0.45 nM
fraction bound at neutral pH [1, 13]: 7.9%
fraction bound at neutral pH [1, 14]: 7.3%
Kd [2, 13]: 5.5 nM
Kd [2, 14]: 5 nM
Kd ([2]; stress condition 40 °C‐1000 r.p.m._72 h): 5.4 nM

Substance: human IgG1 after accelerated asparagine deamidation at pH 8 (antibody)
fraction bound at neutral pH ([1]; stress condition pH8.0_48 h): 7.8%
fraction bound at neutral pH ([1]; stress condition pH8.0_72 h): 6.5%

Substance: human IgG1, pH7.2_48 h control
Fraction bound (5 s after start of dissociation at neutral pH) [10]: 7.6%

Substance: human IgG1 with 3% afucosylation (antibody)
Kd [7]: 0.44 nM
fraction bound at neutral pH [1]: 14.3%
Kd [2]: 3.7 nM
relative binding (% of reference) [3]: 83.9%
relative binding (% of reference) [4]: 79.7%
relative binding (% of reference) [5]: 102%
relative binding (% of reference) [6]: 90.6%

Substance: human IgG1, AF 3 (3% afucosylated)
Fraction bound (5 s after start of dissociation at neutral pH) [10]: 14.3%

Substance: human IgG1, 1 freeze/thaw cycle
Fraction bound (5 s after start of dissociation at neutral pH) [10]: 8.4%

Substance: human IgG1, pH7.2_96 h control
Fraction bound (5 s after start of dissociation at neutral pH) [10]: 7.9%

Substance: human IgG1, deamidated pH8.0_48 h
Fraction bound (5 s after start of dissociation at neutral pH) [10]: 7.8%

Substance: human IgG1, 5 freeze/thaw cycles
Fraction bound (5 s after start of dissociation at neutral pH) [10]: 8.1%

Substance: human IgG1, monomer fraction of the DSS cross-linking preparation
Fraction bound (5 s after start of dissociation at neutral pH) [11]: 8.9%

Second part, the substance after the results:

Kd [7]: 0.52 nM
Kd [2]: 4.9 nM
Substance: human IgG1, 0% deglycosylated control of the deglycosylation (antibody)

Fraction bound (5 s after start of dissociation at neutral pH) [10]: 15.7%
Substance: human IgG1, AF 70 (70% afucosylated)

Fraction bound (5 s after start of dissociation at neutral pH) [10]: 10%
Substance: human IgG1, deamidated pH8.0_96 h

Fraction bound (5 s after start of dissociation at neutral pH) [10]: 6.5%
Substance: human IgG1, deamidated pH8.0_72 h

Kd ([7]; stress condition pH7.2_48 h): 0.59 nM
Kd ([7]; stress condition pH7.2_72 h): 0.48 nM
Kd ([7]; stress condition pH7.2_96 h): 0.58 nM
fraction bound at neutral pH [1]: 7.6%
Kd ([2]; stress condition pH7.2_48 h): 5.5 nM
Kd ([2]; stress condition pH7.2_72 h): 6.1 nM
Kd ([2]; stress condition pH7.2_96 h): 5.6 nM
Substance: human IgG1 kept at 40 °C in HBS buffer pH 7.2 (control of the deamidation stress) (antibody)

relative binding (% of reference) [3]: > 1000%
relative binding (% of reference) [4]: 389%
relative binding (% of reference) [5]: > 1000%
relative binding (% of reference) [6]: > 1000%
Substance: human IgG1 heated to 75 °C for 15 min at 300 r.p.m. (antibody)

Fraction bound (5 s after start of dissociation at neutral pH) [10]: 6.4%
Substance: human IgG1, H2O2_0.25% oxidised

Kd [7]: 0.43 nM
Kd [2]: 3.7 nM
Substance: human IgG1 with 8% afucosylation (antibody)

relative binding (% of reference) [3]: 127%
relative binding (% of reference) [4]: 72.7%
relative binding (% of reference) [5]: 62.5%
relative binding (% of reference) [6]: 93.4%
Substance: human IgG1 heated to 70 °C for 15 min at 300 r.p.m. (antibody)

Fraction bound (5 s after start of dissociation at neutral pH) [10]: 7.7%
Substance: human IgG1, H2O2_0.5% oxidised

Fraction bound (5 s after start of dissociation at neutral pH) [10]: 4.1%
Substance: human IgG1, DG 100 (fully deglycosylated with PNGase F)

fraction bound at neutral pH [1]: 17.7%
Kd [12]: 3 nM
Kd [9]: 0.07 nM
Substance: covalent oligomer fraction of IgG1 (DSS cross-linked, preparative SEC) (antibody)

Fraction bound (5 s after start of dissociation at neutral pH) [10]: 7.3%
Substance: human IgG1, 40 °C-1000 r.p.m._48 h

Fraction bound (5 s after start of dissociation at neutral pH) [10]: 8.3%
Substance: human IgG1, pH7.2_72 h control

Fraction bound (5 s after start of dissociation at neutral pH) [10]: 8.6%
Substance: human IgG1, 40 °C-1000 r.p.m._72 h

maximum response [7]: 5 RU
Kd [2]: 6.3 nM
Substance: fully deglycosylated human IgG1 (PNGase F) (antibody)
